Where two headings read alike, the source gives them in different places.
Legend:
allogeneic DTH responses = assay: Delayed type hypersensitivity (DTH) assessment, footpad swelling after alloimmunization with HKB cells; assay type: in vivo, mice
Method: A. C57BL/6 (H-2^b) mice were vaccinated with irradiated allogeneic HKB (H-2^a) cells suspended in PBS at 10^7 trypan blue-excluding cells/ml. Cells were irradiated with 6000 rads from a ^137Cs source, and mice were vaccinated with 10^6 cells s.c. (day 0). Mice were given rmIL-12 (Genetics Institute, Andover, Mass.) by intraperitoneal injection (ip) with 500 ng/day on days 0-4 and 7-11 (10 injections). Control mice received phosphate buffered saline (PBS) injections. The vaccinated mice received 1 mg of neutralizing anti-IFNγ (XMG6) and/or anti-TNFα (XT22) monoclonal antibodies (mAbs) on days −1, 3 and 7. Mice were subsequently assayed for delayed type hypersensitivity (DTH) and for mitogen and alloantigen stimulation of splenocytes as described below.
The DTH assessment was performed as follows: For assessment of allogeneic DTH responses, mice were injected with 50 μl PBS containing 10^6 irradiated SCK cells in the right footpad and with 50 μl PBS in the left footpad. Footpad thickness measurements were taken just before injection and 24 hours later using a Starrett pocket gauge (Athol, Mass.). Data are presented as the difference in footpad swelling induced by SCK cells and by PBS.
C57BL/6 mice genetically deficient for IFNγ (IFNγ^−/−) and wild-type C57BL/6 mice were vaccinated with 10^6 irradiated HKB cells and given 500 ng rmIL-12 or phosphate buffered saline (PBS) on days 0-4 and 7-11 or left unvaccinated. They were challenged with 10^6 irradiated SCK cells in the right foot, with PBS control injection in the left foot on day 12. The DTH responses were measured as described above in Part A.
C. To examine the role of TNFα, SV129×C57BL/6 mice deficient for both p55 and p75 TNF receptors (TNFR^−/− mice) and control mice were vaccinated with 10^6 irradiated HKB cells and given 500 ng IL-12 or PBS on days 0-4 and 7-11. DTH assessment was performed on day 12, as described above in Part A.
Footpad injections for DTH assessment were performed on day 12 as described above in the DTH assay. Swelling 24 hours later is presented as the mean (+S.E.) from 3 mice in each treatment group in FIG. 4A.

SCK cells [1] = assay: SCK.GM cell vaccination followed by SCK tumor cell challenge; assay type: in vivo, A/J mice; details: rmIL-12 250 ng/day ip days 0-4 and 7-11; challenge two weeks after vaccination
Text: A. Female A/J mice were vaccinated with 10^6 irradiated SCK.GM cells suspended in PBS at 10^7 trypan blue-excluding cells/ml. Cells were irradiated with 6000 rads from a ^137Cs source, and mice were vaccinated with 10^6 cells s.c. (day 0). […] Vaccinated and naive A/J mice were challenged fourteen days after vaccination with 2.5×10^4 trypan blue-excluding SCK cells in the opposite flank to assay for the presence of tumor immunity. Tumorigenesis was scored daily.

SCK cells [2] = assay: Irradiated wild-type SCK cell vaccination followed by SCK tumor cell challenge; assay type: in vivo, A/J mice; details: SCK-vaccinated mice; at 28 days; rmIL-12 alone, or L-NAME/D-NAME given with rmIL-12
Text: Female A/J mice (8 mice per group) were vaccinated with 10^6 irradiated SCK cells and received either PBS, rmIL-12, rmIL-12+L-NAME or rmIL-12 and D-NAME on days 0-4 and 7-11. Mice were challenged fourteen days after vaccination with 2.5×10^4 SCK cells in the opposite flank. Tumorigenesis was scored daily, as described above.

SCK tumors = assay: Antitumor activity of rmIL-12 against SCK tumors (tumorigenesis scored daily); assay type: in vivo, A/J mice; details: L-NAME given with rmIL-12
Method: Female A/J mice were injected with 2.5×10^4 SCK cells and either PBS, rmIL-12, rmIL-12+L-NAME or rmIL-12 and D-NAME on days 0-4 and 7-11. Tumorigenesis was scored daily, as described above.

SCK cells [3] = details: cited from earlier work

B1: rmIL-12: recombinant murine Interleukin-12, heterodimeric cytokine, from Genetics Institute (protein, UniProt P43431 23-215; P43432 23-335, looked up)
Interleukin-12 subunit alpha: RVIPVSGPARCLSQSRNLLKTTDDMVKTAREKLKHYSCTAEDIDHEDITRDQTSTLKTCLPLELHKNESCLATRETSSTTRGSCLPPQKTSLMMTLCLGSIYEDLKMYQTEFQAINAALQNHNHQQIILDKGMLVAIDELMQSLNHNGETLRQKPPVGEADPYRVKMKLCILLHAFSTRVVTINRVMGYLSSA
Interleukin-12 subunit beta: MWELEKDVYVVEVDWTPDAPGETVNLTCDTPEEDDITWTSDQRHGVIGSGKTLTITVKEFLDAGQYTCHKGGETLSHSHLLLHKKENGIWSTEILKNFKNKTFLKCEAPNYSGRFTCSWLVQRNMDLKFNIKSSSSSPDSRAVTCGMASLSAEKVTLDQRDYEKYSVSCQEDVTCPTAEETLPIELALEARQQNKYENYSTSFFIRDIIKPDPPKNLQMKPLKNSQVEVSWEYPDSWSTPHSYFSLKFFVRIQRKKEKMKETEEGCNQKGAFLVEKTSTEVQCKGGNVCVQAQDRYYNSSCSKWACVPCRVRS
DTH responses (allogeneic DTH responses; IFNγR1−/− C57BL/6×SV129 mice and controls vaccinated with HKB cells, data not shown): suppressed DTH responses in control but not IFNγR1^−/− mice
DTH responses (allogeneic DTH responses; IFNγ−/− C57BL/6 mice vaccinated with HKB cells, rmIL-12 500 ng days 0-4 and 7-11): had no suppressive effect
DTH responses (allogeneic DTH responses; TNFR−/− (p55 and p75) SV129×C57BL/6 mice vaccinated with HKB cells, 500 ng days 0-4 and 7-11): depressed DTH responses like wild-type
DTH responses (allogeneic DTH responses; iNOS−/− C57BL/6 mice vaccinated with HKB cells, course of rmIL-12): at least as great as those of PBS-treated iNOS^−/− and wild-type mice
DTH responses (allogeneic DTH responses; wild-type C57BL/6 mice vaccinated with irradiated HKB cells, rmIL-12 500 ng/day ip days 0-4 and 7-11, challenge day 12): suppressed DTH responses to background levels
Effect on SCK.GM vaccine protection from tumor cell challenge (SCK cells [1]): severely impaired this protection
level of protection (SCK cells [2]): 75%
median days to tumor appearance (SCK tumors; 2.5×10^4 SCK cells, treatment days 0-4 and 7-11, 9 days without rmIL-12): 14 days
delay of tumor appearance vs. untreated mice (SCK tumors; treatment started on day of SCK cell injection): about 5 days
Effect on protection by irradiated SCK cell vaccination (SCK cells [3]; challenged 14 days after vaccination): did not improve protection
Effect on protection by irradiated SCK cell vaccination (SCK cells [3]; challenged at 28 days): did improve protection

From patent publication US6375944B1, “Methods and compositions for enhancing the immunostimulatory effect of interleukin-12” (The Wistar Institute of Anatomy and Biology, priority 1998, dated 2002)
